Test results: paper PMC12170880

Experiments:
Details in all cases: EMSA: 10 mM Tris-HCl pH 7.5, 50 mM NaCl, 1 mM EDTA, 5% glycerol, 1 mg/mL BSA, 1 mM DTT; 30 min, room temperature; 6% native PAGE, 0.5x TBE
[1] = biological target: T1, HDIP1-c (Arabidopsis thaliana) (UniProt F4I0M4); assay: EMSA
T1 sequence: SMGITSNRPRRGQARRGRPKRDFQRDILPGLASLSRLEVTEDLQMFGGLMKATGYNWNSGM

[2] = biological target: T2, HDIP1-a (Arabidopsis thaliana) (UniProt F4I0M4); assay: EMSA
T2 sequence: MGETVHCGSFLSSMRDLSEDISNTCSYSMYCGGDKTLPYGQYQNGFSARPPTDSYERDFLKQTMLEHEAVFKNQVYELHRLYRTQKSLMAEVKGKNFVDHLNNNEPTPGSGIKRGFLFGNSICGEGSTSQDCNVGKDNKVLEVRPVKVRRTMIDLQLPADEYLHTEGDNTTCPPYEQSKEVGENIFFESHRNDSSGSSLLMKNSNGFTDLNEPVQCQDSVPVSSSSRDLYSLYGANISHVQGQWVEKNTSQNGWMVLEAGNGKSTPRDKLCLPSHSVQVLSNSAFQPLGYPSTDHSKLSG

[3] = biological target: T3, HDIP1-b (Arabidopsis thaliana) (UniProt F4I0M4); assay: EMSA
T3 sequence: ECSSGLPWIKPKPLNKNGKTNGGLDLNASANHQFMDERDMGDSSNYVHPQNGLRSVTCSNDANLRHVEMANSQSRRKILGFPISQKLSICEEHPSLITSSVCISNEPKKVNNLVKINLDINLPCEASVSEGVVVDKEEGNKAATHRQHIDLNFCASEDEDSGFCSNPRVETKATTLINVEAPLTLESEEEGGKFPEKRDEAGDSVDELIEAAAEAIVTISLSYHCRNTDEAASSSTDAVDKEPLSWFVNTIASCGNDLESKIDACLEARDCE

[4] = biological target: T4, HDIP1-d (Arabidopsis thaliana) (UniProt F4I0M4); assay: EMSA
T4 sequence: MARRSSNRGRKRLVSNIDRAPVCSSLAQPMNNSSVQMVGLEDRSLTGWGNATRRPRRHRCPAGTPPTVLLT

[5] = biological target: T5, HDIP3-DBD (Arabidopsis thaliana) (UniProt Q9LMG4); assay: EMSA
T5 sequence: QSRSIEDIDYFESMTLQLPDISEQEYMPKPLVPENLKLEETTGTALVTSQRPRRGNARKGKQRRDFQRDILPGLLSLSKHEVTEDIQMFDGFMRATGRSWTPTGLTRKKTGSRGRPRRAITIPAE

[6] = biological target: T1, HDIP1-c (Arabidopsis thaliana); assay: competition

CCACTCCACATAGCTACGTCACTTAAAGTCCCATAGTAACTAATTTTCTTTGAATGTTATAGCAAATTATTAGCAATGTATGATTCTTTGGGTCAAATCTTACACTAAAAACATGAAAATAATTTGAATATCAAGAGATTCATATATTCATATTTTATAACCAAAATATGTAGGGTCTAAATTATTGCTTCTTGACTAGG (double strand) [P2 (200 bp)]
binding [1]: binds

TGTGAAGAATGCAGTAAGAGGCAGTCAAAGATTCAAAGGGAAAAAAGTTTACGAAAACAAAAGATTATATTTTGGGAGTATTAGGCTGCCACGTGGAAACACTTGCACCGGCATTTGACCGTCGCCGACACATGACCTGGCACGTGCTAGAGACTGTCTTCTCTTCTTCTTCTTCTTTTTCCCTCACTGTTTCACGAACC (double strand) [P1 (200 bp)]
binding [2]: no binding | binding [3]: no binding | binding [1]: binds | binding [4]: no binding | binding [5]: binds | binding [6]: binds

TTCCTAAGAGGTCTAGATTGGTGCTTGGACTTTAATTTGGTCTTCGTCTCTCGTTCTCGTATTTATGCATTTTGAAACTCAAAAAAGGAAGAGAGAGAAGAATAATATGATTTTGGCTACTTGGTTTGGAAATAAGTTAATTAAGTAAAAGTGTATTGAGATATAATTCAATGGTACGTGTGTGAATCCAAAGTCGTGTT (double strand) [P3 (200 bp)]
binding [1]: binds
